# ± gives the standard deviation of the averaged measurements.
# Tested on: Saccharomyces cerevisiae
# Assay: protein stability index of tFT-peptide fusion (C-terminal peptide) (PSI (0-1 scale)); higher = more stable (slower turnover)
# Settings: genetic background: wild type; temperature: 30 C
# 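Also: PSI is a weighted mean of sequencing reads over stability bins, variants kept only with over 10 reads, mCherry proximal and sfGFP distal, peptide attached via GGGS linker.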
row,Sequence,protein stability index
1,PLPPPPLLALCS,0.531 ± 0.02
2,CSRFGRLCYNGE,0.618 ± 0.023
3,KQKIKTDKYKKD,0.656 ± 0.051
4,RCGGIWWIVSSV,0.669 ± 0.081
5,LVLVEAPASRNP,0.72449 ± 0.00013
6,GCSNESVGVISG,0.644 ± 0.024
7,RVSWGRTGTLRN,0.681 ± 0.018
8,RYVVTVQGSGGE,0.688 ± 0.045
9,PIFVCPFPGSLV,0.683 ± 0.065
10,PPPPPPRPPSAH,0.708 ± 0.087
11,AFWLPAAVPLIF,0.584 ± 0.022
12,CGRCVRGGRPWG,0.577 ± 0.012
13,PPPPPLPPQLSH,0.756 ± 0.011
14,LRVYCVIPLSGM,0.526 ± 0.049
15,PPRGCLYFSRPP,0.739 ± 0.095
16,SLFGMACDGGLP,0.6873 ± 0.0043
17,QKFKHQNKLQSE,0.6803 ± 0.0061
18,SWLKRNLFPVAI,0.596 ± 0.018
19,CPDFSSSLTFFL,0.706 ± 0.014
20,PPRPPPLLPRTL,0.707 ± 0.014
21,PQLCSPLITIGV,0.5961 ± 0.0032
22,PPFRSPPRHDPL,0.662 ± 0.015
23,GNIREEYGSTGI,0.7226 ± 0.0032
24,YCTMHLQLLQHS,0.578 ± 0.012
25,SFPLPSLSSPSS,0.61 ± 0.075
26,RRLANMIFFLGG,0.69 ± 0.042

row,Sequence,protein stability index
1,PPPPPPLSVPPL,0.695 ± 0.077
2,SPDHATYHNPAR,0.76 ± 0.074
3,PPPPTRSRRNLP,0.705 ± 0.047
4,RKRVKRTIYESK,0.635 ± 0.1
5,GLVGPKDRVSGL,0.701 ± 0.018
6,DRNKRDERTSEE,0.744 ± 0.026
7,CGRSGALGPWGG,0.673 ± 0.0053
8,FLPPSRFSPLRL,0.708 ± 0.11
9,PPPPPLPPLPCP,0.695 ± 0.03
10,EKKKKKKKKKKK,0.7721 ± 0.003
11,RCTPPPPTPPAT,0.6832 ± 0.0027
12,DGGALGVKGCDR,0.694 ± 0.054
13,GWGRGGFRVVVG,0.712 ± 0.02
14,FGVHCSSPTSGG,0.6684 ± 0.0013
15,QPLDCPPYHPHH,0.687 ± 0.016
16,PPPRPSPLSSSL,0.678 ± 0.094
17,KIVCTLGPAFAR,0.672 ± 0.051
18,SRGRTRLVAPIV,0.66 ± 0.14
19,PLSPPPPGPPAS,0.6037 ± 0.0024
20,VGGGGAVDGRSG,0.7298 ± 0.0025
21,CHILGSINKIKE,0.7 ± 0.039
22,KKEEEGRTKECR,0.694 ± 0.093
23,LLGLVGGVVGLA,0.624 ± 0.01
24,KTKSKNGNQRAT,0.711 ± 0.025
25,KRSIVSTDKDRY,0.603 ± 0.045
26,LLPSRAPTSIPL,0.686 ± 0.037

row,Sequence,protein stability index
1,PRDQPPDGHASP,0.6717 ± 0.002
2,VWSILSCRTRLL,0.503 ± 0.02
3,PRPAPHTGPSPG,0.613 ± 0.029
4,RLFSPLRPLSPP,0.668 ± 0.032
5,LPTLFPSAPSAI,0.664 ± 0.05
6,AMLDSPRHLPSA,0.679 ± 0.041
7,LPCPRPVPPSPA,0.626 ± 0.018
8,SRGMRNPLSADR,0.645 ± 0.098
9,GVGGGEAGVIGR,0.769 ± 0.041
10,GLQLTLINLPLE,0.749 ± 0.029
11,GDLKWVGLGVQR,0.687 ± 0.03
12,VQSVIEPSIRYA,0.648 ± 0.014
13,GGGGERGGVKRG,0.663 ± 0.02
14,CTQCCSGARLFM,0.672 ± 0.081
15,GGRGRGGEMGGR,0.722 ± 0.033
16,PLLPLAASPPPP,0.683 ± 0.051
17,TVGSVAREGPFW,0.696 ± 0.025
18,LPPSPPTVPSPP,0.67 ± 0.027
19,PPPHLPPPPPTQ,0.658 ± 0.059
20,VQASQFRFSVPL,0.632 ± 0.013
21,IMGGPGLTALSR,0.729 ± 0.061
22,WSAPHPVCSPPS,0.697 ± 0.0093
23,PPSPFHPPPPER,0.551 ± 0.013
24,PPPVLSPRFPVL,0.731 ± 0.14
25,FGGLLFTRFGWE,0.802 ± 0.056
26,VGVGWWVGLWGL,0.693 ± 0.011

row,Sequence,protein stability index
1,PPPFPPPPARSL,0.474 ± 0.043
2,PSRRPPLPLPRP,0.714 ± 0.013
3,GGSRGGRWGLGE,0.746 ± 0.087
4,TEYCSRHDTATK,0.728 ± 0.0096
5,VFLTASVLVAPF,0.575 ± 0.015
6,GRMGGWCVSGEV,0.658 ± 0.017
7,SWYSLVWTSSER,0.695 ± 0.054
8,PSLLHPPLPTSP,0.657 ± 0.036
9,WARLHLSGRYSL,0.747 ± 0.02
10,NQRCLRGKIVRC,0.633 ± 0.03
11,RPPPLLPARLSL,0.727 ± 0.028
12,DSKRIQSRLYYS,0.66 ± 0.027
13,SFPPPLPPPLHP,0.721 ± 0.06
14,RGKKKAKIYREH,0.766 ± 0.13
15,VFVCFMSHLRGS,0.58 ± 0.012
16,SGGAEGVRAGAA,0.715 ± 0.081
17,RIWEVQFRRLSE,0.823 ± 0.074
18,YFETNINKYLRM,0.7107 ± 0.00072
19,YIGLPVSALTIF,0.574 ± 0.1
20,TDWCSYWSGWVV,0.722 ± 0.019
21,GPSSVGWLFVVC,0.553 ± 0.039
22,PFSLPPPRPPRP,0.684 ± 0.045
23,PSPPRKHAPFRP,0.737 ± 0.0085

# From the supplement of paper PMC10724198
